In US20050054014A1:
Starred links: 1 amine or outer side, 2 acyl side, 3 side chain; linkers in the order of their positions; H or OH if unused. Non-standard residues stand in square brackets, D forms with d. No end group written: not given here. βAsp = O=C(O)[C@H](CC(=O)[*:2])N[*:1]

Tests used:
[1] = biological target: AG1-1 specific monoclonal antibody F49; assay: competitive ELISA, biotin-GRVRVD-β-SAY on streptavidin plates, free peptide as competitor
[2] = biological target: polyclonal AG1-1 specific rabbit antiserum; assay: competitive ELISA, BSA-BS^3-AG1-1 coated plates, free peptide as competitor

Row | fold higher reactivity compared with the αL form [1] | fold higher reactivity compared with the non-boiled form [2] | Binder
1 | > 500 fold |  | GRVRV[βAsp]SAY [AG1-1 peptide, isomerized (βL) form]
2 |  | 7 fold | GRVRVNSAY (also: heated mixture: Asn6 partly converted to βL, αD and βD forms) [AG1-1 peptide … heated at 90° C. for 4 hours]
